Patent US20240123058A1

Assays:
[1] = molecular target: EBV gB protein ectodomain (24-683 aa) of the substituted M81 strain gB protein, C-terminal 6×His tag (EBV M81 strain) (UniProt P0C762); experiment: competition ELISA on coated gB: unlabelled primary antibody at 10 µg/mL, then HRP-labelled 3A5 as secondary
[2] = molecular target: EBV gB protein ectodomain (24-683 aa) of the substituted M81 strain gB protein, C-terminal 6×His tag (EBV M81 strain) (UniProt P0C762); experiment: competition ELISA on coated gB: unlabelled primary antibody at 10 µg/mL, then HRP-labelled AMMO5 as secondary
[3] = molecular target: EBV gB protein ectodomain (24-683 aa) of the substituted M81 strain gB protein, C-terminal 6×His tag (EBV M81 strain) (UniProt P0C762); experiment: competition ELISA on coated gB: unlabelled primary antibody at 10 µg/mL, then HRP-labelled 3A3 as secondary

Substance: mouse monoclonal antibody 72A1
- competition rate [1]: 8%
- competition rate [2]: -9.3%
- competition rate [3]: -1.4%
